The conditions of series [1]: reported values; cited from earlier work.
For series [2], the system named is E. coli SHuffle strain. The experiment in a line: Recapitulation of growth restoration with TS-PTDH variants in SHuffle strain. Particulars: spotted onto agar selection plates. Format: cell-based, Escherichia coli. The method, then: Selection of TS-PTDH Library. A total of 50 μL pre-made SHuffle/pLZ311 or SHuffle/pLZ312 electro-competent cells were transformed with 2 μL TS-PTDH A155N-E175-A176-L208 NNK library DNA (pLZ316) via electroporation as described above. After rescue in SOC media for 1 h, cultures were combined in 10 mL 2×YT with 10 g/L glucose, 0.5% arabinose, kanamycin and ampicillin. 0.2, or 1 μL of culture was immediately taken from the culture and plated on an 2×YT agar plates with kanamycin and ampicillin. The plate was incubated at 37° C. overnight, and the number of colonies formed was counted to estimate the library size. The liquid cultures were incubated at 37° C. with shaking for 10 h. Cells (1 mL) were washed 3 times and re-suspended in M9 Buffer. Targeted serial dilutions of cells were prepared in M9 buffer and 5 μL aliquots were dispensed in series on an agar plate of M9 selection media containing 0.5 mM diamide, 5 or 1 g/L yeast extract, 10 g/L glucose, 0.5% arabinose, 0.5 mM IPTG, 10 g/L sodium phosphite, kanamycin, ampicillin, and 5 mM NMN^+. Selection plates were incubated at 37° C., and photographs were taken to document growth progress. The independent transformants sampled was calculated as 2.4×10^6 and 2.5×10^6 colonies when plated on 5 and 1 g/L yeast extract, respectively. TS-PTDH and the template of the library, TS-PTDH A155N, were cultured in the same conditions as controls. The colonies were numbered by the order of appearance. The selected cells were re-streaked on fresh agar plate with identical media and incubated until single colonies formed on the plate. Variants that cannot forma single colony may be false positives. After extracting the plasmids from each re-streaked colony, the chosen TS-PTDH variants were amplified and moved into the pQElac vector containing a N-terminal 6×His tag for protein purification and characterization. […] 2 μL of a serial dilution of cells were deposited onto a growth selection plate and grown at 37° C.

The nature of series [3]: Steady-state kinetics of TS-PTDH variants with NADP^+. In kind it is biochemical. The following applies: 100 mM MOPS, pH 7.25, 10 mM sodium phosphite, varied cofactor concentrations; n = 3. The procedure:
(§1) Purification and Characterization of TS-PTDH Variants. The E. coli BL21(DE3) strains harboring pQElac plasmids encoding the TS-PTDH or TS-PTDH variants were grown in 2×YT media with kanamycin and ampicillin at 37° C. The IPTG-inducible expression, Ni-affinity purification, and protein concentration determination was conducted as described above.
(§2) The steady-state kinetic parameters toward the coenzymes were measured by spiking purified protein into a 100 μL reaction mixture containing 100 mM MOPS, pH 7.25, 10 mM sodium Pt, and varied cofactor concentrations from 0.02 mM to 5 mM at 25° C. The kinetic parameters were measured by monitoring the […] of reduced coenzyme at 340 nm. Data were fitted to the Michaelis-Menten equation to generate estimates of KM and kcat values.

The nature of series [4]: Steady-state kinetics of TS-PTDH variants with NAD^+. Particulars: 100 mM MOPS, pH 7.25, 10 mM sodium phosphite, varied cofactor concentrations; n = 3. Format: biochemical. The method, then: as §1, §2
A short description of series [5]: BNA(H)-mediated PTDH biotransformation with TsOYE. In kind it is biochemical. The following applies: 0, 5, 10, or 20 mM BNA^+. The procedure:
BNA(H)-Mediated PTDH Biotransformation. Reactions with BNA^+, see FIG. 10D, contained 100 mM MOPS-NaOH at pH 7.6, 10 mM KIP, 100 mM sodium phosphite, and 2% v/v DMSO. BNA^+Cl^−, prepared by refluxing equimolar amounts of nicotinamide and benzyl chloride in acetonitrile overnight, followed by precipitation with diethyl ether on ice was supplied to the reactions at final concentrations of 0, 5, 10, or 20 mM. Reactions were initiated by spiking TsOYE and the appropriate TS-PTDH variant to a final concentration of 10 μM, each. Reaction mixtures were incubated at 30° C. on a Thermomixer C (Eppendorf) with shaking at 900 rpm for 24 h, extracted with 500 μL ethyl acetate containing 5 mM n-dodecane, and analyzed by GC-FID. The cycling system with no BNA was used to determine the background activity of the cycling systems. This value was subtracted from the final levodione concentrations in the 5-, 10-, and 20-mM samples to determine the BNA(H)^− specific levodione production. Concentrations of levodione product were determined using a calibration line (0-10 mM, 6 levels, using n-dodecane as internal standard). The y-intercept of the calibration line was forced through 0.
For BNA(H)-mediated reactions, gas chromatography analyses were performed on a GC-2010 (Shimadzu, Japan) equipped with an AOC-20i auto injector and a flame ionization detector (FID), using a CP-Sil 5 column (25 m×0.25 mm×[…]). 1 μL of sample was injected with a split ratio of 100:1 and injector at 340° C. The FID was maintained at 360° C. Nitrogen was used as the carrier gas, with a linear velocity of 30 cm/s. The oven was held at 135° C. for 1 min, ramped at 15° C./min to 215° C., then 30° C./min to 345° C., and held at 345° C. for 1 min.
Expression and Purification of Proteins for BNA(H)-Mediated Biotransformation Reactions. E. coli BL21(DE3) strains were transformed with the plasmids containing the TS-PTDH variants and grown on LB-agar plates containing ampicillin at 37° C. overnight. An overnight culture, 15 mL LB supplemented with ampicillin, was inoculated with a single colony, and grown at 37° C., 170 rpm overnight. 2 L baffled shake-flasks with 250 mL of 2×YT media containing 200 μg/mL ampicillin, were inoculated with the overnight culture, grown at 37° C., 170 rpm until OD600 of ˜1.0, induced with IPTG (0.5 mM), and grown at 30° C. and 170 rpm for 24 h. Cells were harvested by centrifugation at 18,000×g, 4° C., 10 min and stored at −20° C. until purification.
The pellet was resuspended in four volumes loading buffer (50 mM sodium phosphate, 300 mM sodium chloride, 10 mM imidazole, pH 7.7), and lysed on ice by sonication (Branson sonifier 250; 15 min total, 40% duty cycle, output control 3.5, 2 mm tip). The lysate was clarified (21,000×g, 4° C., 30 min followed by 0.2 μm filtration), and loaded (1 mL/min) onto a Nickel-HisTrap FF crude (1 mL) column, washed with loading buffer (12 column volumes, CV), followed by a step with 10% elution buffer (loading buffer containing 250 mM imidazole; 12 CV). The protein was then eluted with 100% elution buffer and collected in fractions of 0.5 mL. Fractions containing protein were combined and dialyzed against ice-cold dialysis buffer (50 mM sodium phosphate, pH 7.7, 800 mL); the buffer was renewed after the first 2 h of dialysis. Following the dialysis, the protein was mixed with glycerol (20% v/v final concentration). Enzyme concentrations were estimated by the absorbance at 280 nm (non-denatured protein), using predicted extinction coefficients (wild type and LY-13: 26470, LY-7: […]; web.expasy.org/protparam/). The protein was aliquoted, flash frozen in liquid nitrogen, and stored at −80° C. until use. […]

The nature of series [6]: Steady-state kinetics of TS-PTDH variants with NMN^+. Format: biochemical. Particulars: enzyme could not be saturated; 100 mM MOPS, pH 7.25, 10 mM sodium phosphite. The procedure: as §1, §2
The nature of series [7]: Specific activity of TS-PTDH variants with NMN^+. In kind it is biochemical. Particulars: 100 mM MOPS pH 7.25, 10 mM sodium Pt, 4 mM cofactor, 25° C. The procedure: as §1
The specific activities of TS-PTDH and variants were measured with the following methods. Briefly, the reaction mixture contained 100 mM MOPS buffer, pH 7.25, 10 mM sodium Pt, and 4 mM cofactor (NAD^+, NADP^+, or NMN^+). The formation of reduced coenzyme was measured by light absorption at 340 nm in a 96-well plate at 25° C. Absorption was correlated to a molar basis using the extinction coefficient (ε) of 6.22 mM^−1 cm^−1 for each cofactor.

Here are results for two molecules from patent publication US20230322857A1, “RECOMBINANTLY ENGINEERED POLYPEPTIDES CAPABLE OF RECYCLING NONCANONICAL COFACTORS” (The Regents of the University of California, priority 2022, published 2023).

B1: wild-type PTDH: wild-type phosphite dehydrogenase enzyme, literature TTN with NAD^+ (protein, UniProt O69054 1-336, looked up)
Phosphonate dehydrogenase: MLPKLVITHRVHDEILQLLAPHCELMTNQTDSTLTREEILRRCRDAQAMMAFMPDRVDADFLQACPELRVVGCALKGFDNFDVDACTARGVWLTFVPDLLTVPTAELAIGLAVGLGRHLRAADAFVRSGEFQGWQPQFYGTGLDNATVGILGMGAIGLAMADRLQGWGATLQYHEAKALDTQTEQRLGLRQVACSELFASSDFILLALPLNADTQHLVNAELLALVRPGALLVNPCRGSVVDEAAVLAALERGQLGGYAADVFEMEDWARADRPRLIDPALLAHPNTLFTPHIGSAVRAVRLEIERCAAQNIIQVLAGARPINAANRLPKAEPAAC
Turning to B1, the “TTN with NAD^+” value in series [1] is on record as 80,000.

B2: TS-PTDH: 16× thermostable variant of Pseudomonas stutzeri phosphite dehydrogenase (SEQ ID NO:2), engineering template (protein, listed as Pseudomonas stutzeri)
chain: MLPKLVITHRVHEEILQLLAPHCELITNQTDSTLTREEILRRCRDAQAMMAFMPDRVDADFLQACPELRVIGCALKGFDNFDVDACTARGVWLTFVPDLLTVPTAELAIGLAVGLGRHLRAADAFVRSGKFRGWQPRFYGTGLDNATVGFLGMGAIGLAMADRLQGWGATLQYHEAKALDTQTEQRLGLRQVACSELFASSDFILLALPLNADTLHLVNAELLALVRPGALLVNPCRGSVVDEAAVLAALERGQLGGYAADVFEMEDWARADRPQQIDPALLAHPNTLFTPHIGSAVRAVRLEIERCAAQNILQALAGERPINAVNRLPKANPAAD
B2: in series [2], the “growth restoration, co-expression with NMNH-specific Gor Ortho” value is “grew poorly” and the “growth, co-expression with wild type Ec Gor” value was “supported cell growth”. Moreover, in series [3], the Km worked out at 740 ± 40 µM and the “NADP^+ kcat” value stood at 0.57 ± 0.01 s⁻¹. In addition, in series [4], the Michaelis-Menten constant (Km) amounted to 60 ± 10 µM and the “NAD^+ kcat” value came to 1.03 ± 0.01 s⁻¹. In addition, in series [5], the “response of biotransformation efficiency to BNA^+ concentration” value is on record as “cofactor dose-dependent response”. Further, in series [6], the Km is greater than 5000 µM. Moreover, the “NMN^+-dependent specific activity” value in series [7] stood at 53.0 ± 3.4 nmol/min/mg.
